“And” between values parts separate entries of the source, which are not always exact repeats. Equal values may be shown once.

Data set [1] has as its target T1, Human peroxiredoxin 6 (Prx6) (human (endogenous in human pulmonary artery smooth muscle cells)), P30041.
T1 chain: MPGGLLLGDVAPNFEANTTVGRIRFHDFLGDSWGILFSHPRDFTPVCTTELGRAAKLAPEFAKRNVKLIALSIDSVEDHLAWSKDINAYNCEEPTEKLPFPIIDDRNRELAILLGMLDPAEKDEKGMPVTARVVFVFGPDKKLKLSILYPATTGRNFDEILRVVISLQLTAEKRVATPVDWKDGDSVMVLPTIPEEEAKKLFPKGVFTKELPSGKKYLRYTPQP
The data set can be described thus: non-reducing SDS-PAGE and immunoblot; untreated (or PDGF-treated) human pulmonary artery smooth muscle cells; TCA-precipitated lysates labelled with Protein-SHifter Plus, SDS-PAGE without BME, immunoblot with Prx6 antibody. To be noted: remark: other sources report otherwise. Background: A western blot detects proteins with antibodies after separation by electrophoresis.

Data set [2] has as its target T1, Human peroxiredoxin 6 (Prx6) (human …). Put plainly: SDS-PAGE and immunoblot; lysate proteins from untreated human pulmonary artery smooth muscle cells denatured with SDS and incubated with H2O2 (or BME) in a test tube for 15 min; Protein-SHifter Plus added, SDS-PAGE, immunoblot with Prx6 antibody. Particulars: remark: other sources report otherwise.
The target is the same in data set [3]. The data set can be described thus: non-reducing SDS-PAGE and immunoblot; human pulmonary artery smooth muscle cells, with or without deferoxamine (50 uM, 30 min) and H2O2 (15 min); lysates on SDS-PAGE with or without 5% BME, immunoblot with Prx6 antibody; no Protein-SHifter. To be noted: remark: other sources report otherwise.
Data set [4] deals with the molecule itself. Put plainly: non-reducing SDS-PAGE with Coomassie staining; purified recombinant CNBD, untreated or treated with H2O2 (1 mM) for 15 min; SDS-PAGE, Coomassie Blue; no Protein-SHifter.
Data set [5] concerns the molecule itself. The data set can be described thus: SDS-PAGE and immunoblot; untreated rat pulmonary artery smooth muscle cells; lysates on SDS-PAGE, immunoblot with Prx6 antibody; no Protein-SHifter.

B1: Human peroxiredoxin 6 (Prx6), P30041 1-224 (enzyme)
chain: MPGGLLLGDVAPNFEANTTVGRIRFHDFLGDSWGILFSHPRDFTPVCTTELGRAAKLAPEFAKRNVKLIALSIDSVEDHLAWSKDINAYNCEEPTEKLPFPIIDDRNRELAILLGMLDPAEKDEKGMPVTARVVFVFGPDKKLKLSILYPATTGRNFDEILRVVISLQLTAEKRVATPVDWKDGDSVMVLPTIPEEEAKKLFPKGVFTKELPSGKKYLRYTPQP
Broadly, the stoichiometry N is the number of molecules, sites or subunits per partner or assembly. For the molecule B1, the stoichiometry N in data set [1] was 2 and 3; in data set [2] it was 2; in data set [3], 2.

B2: Cyclic nucleotide-binding domain (CNBD) of human HCN4 (hHCN4) (domain or fragment, UniProt Q9Y3Q4 571-708, looked up)
chain: GELSEPLREEIINFNCRKLVASMPLFANADPNFVTSMLTKLRFEVFQPGDYIIREGTIGKKMYFIQHGVVSVLTKGNKETKLADGSYFGEICLLTRGRRTASVRADTYCRLYSLSVDNFNEVLEEYPMMRRAFETVAL
notes: two cysteines; 19 kDa; Subcloned into pETM11; the printed mass of 19 kDa is more than that of residues 571-708 alone, which may mean that the tag was kept; also called hHCN4 CNBD; CNBD domain of hHCN4 channels; source: E. coli BL21 (DE3), purified (Ni2+-NTA, size-exclusion chromatography)
As for B2, the “stoichiometry N” value in data set [4] is 2 and 3.

B3: Rat peroxiredoxin 6 (Prx6) (enzyme, UniProt O35244 1-224, looked up)
chain: MPGGLLLGDEAPNFEANTTIGHIRFHDFLGDSWGILFSHPRDFTPVCTTELGRAAKLAPEFAKRNVKLIALSIDSVEDHFAWSKDINAYNGAAPTEKLPFPIIDDKDRDLAILLGMLDPAEKDEKGMPVTARVVFIFGPDKKLKLSILYPATTGRNFDEILRVVDSLQLTASNPVATPVDWKKGESVMVLPTLPEEEAKQLFPKGVFTKELPSGKKYLRYTPQP
notes: Peroxiredoxin 6, rat, one cysteine only (catalytic Cys47); also called rat Prx6; source: endogenous, rat pulmonary artery smooth muscle cells (Cell Applications), in lysate
Take B3: the “stoichiometry N” value in data set [5] amounted to 2.

(Values after PMC6563020, “Protein Redox State Monitoring Studies of Thiol Reactivity” (Antioxidants, 2019).)
